Earlier results, collected in US10765706B2, “Method of stem cell delivery into the brain during chronic disease using blood brain barrier permeabilizers” (University of South Florida, priority 2015, dated 2020).

Tested on: stroke patients
Details: acute stroke patients

B1: t-PA: thrombolytic agent, tissue plasminogen activator (protein, UniProt P00750 36-562, looked up)
Tissue-type plasminogen …: SYQVICRDEKTQMIYQQHQSWLRPVLRSNRVEYCWCNSGRAQCHSVPVKSCSEPRCFNGGTCQQALYFSDFVCQCPEGFAGKCCEIDTRATCYEDQGISYRGTWSTAESGAECTNWNSSALAQKPYSGRRPDAIRLGLGNHNYCRNPDRDSKPWCYVFKAGKYSSEFCSTPACSEGNSDCYFGNGSAYRGTHSLTESGASCLPWNSMILIGKVYTAQNPSAQALGLGKHNYCRNPDGDAKPWCHVLKNRRLTWEYCDVPSCSTCGLRQYSQPQFRIKGGLFADIASHPWQAAIFAKHRRSPGERFLCGGILISSCWILSAAHCFQERFPPHHLTVILGRTYRVVPGEEEQKFEVEKYIVHKEFDDDTYDNDIALLQLKSDSSRCAQESSVVRTVCLPPADLQLPDWTECELSGYGKHEALSPFYSERLKEAHVRLYPSSRCTSQHLLNRTVTDNMLCAGDTRSGGPQANLHDACQGDSGGPLVCLNDGRMTLVGIISWGLGCGQKDVPGVYTKVTNYLDWIRDNMRP
fraction of patients receiving the therapy with enhanced recovery: ⅓
